In patent US6410248:

Assays:
[1] = test system: NRE-selected zinc finger protein (Zif268 variant, boxed clone FIG. 3C) (artificial); assay: EMSA; conditions: same buffer, 5 mM MgCl2, 20 uM ZnSO4, pH 7.9
[2] = test system: NRE-selected zinc finger protein (Zif268 variant, boxed clone FIG. 3C) (artificial); assay: competition; conditions: nonspecific over specific dissociation constant ratio; calf thymus competitor in EMSA
[3] = test system: TATA box-selected zinc finger protein (Zif268 variant, boxed clone FIG. 3A) (artificial); assay: competition; conditions: nonspecific over specific dissociation constant ratio; calf thymus competitor in EMSA
[4] = target: Zif268 zinc fingers 1-3 (wild type) (UniProt P08046); assay: competition; conditions: nonspecific over specific dissociation constant ratio; calf thymus competitor in EMSA
[5] = test system: p53 site-selected zinc finger protein (Zif268 variant, boxed clone FIG. 3B) (artificial); assay: competition; conditions: nonspecific over specific dissociation constant ratio; calf thymus competitor in EMSA
[6] = test system: TATA box-selected zinc finger protein (Zif268 variant, boxed clone FIG. 3A) (artificial); assay: EMSA; conditions: same buffer, 5 mM MgCl2, 20 uM ZnSO4, pH 7.9
[7] = test system: p53 site-selected zinc finger protein (Zif268 variant, boxed clone FIG. 3B) (artificial); assay: EMSA; conditions: same buffer, 5 mM MgCl2, 20 uM ZnSO4, pH 7.9

With “GCCGTCAAGGGTTCAGTGGGG (double strand) [NRE site]” the Kd [1] was 0.038 nM.
In the case of calf thymus DNA, the DNA-binding specificity ratio (nonspecific Kd / specific Kd) (fold (Kdns/Kd)) [2] is reported as 36000, the DNA-binding specificity ratio (nonspecific Kd / specific Kd) (fold (Kdns/Kd)) [3] is reported as 25000 and the binding signal (fold (Kdns/Kd)) [4] is reported as 31000. It also gave a DNA-binding specificity ratio (nonspecific Kd / specific Kd) (fold (Kdns/Kd)) [5] of 54000.
“AGGGGGGCTATAAAAGGGGGT (double strand) [TATA box site]” gave a Kd [6] of 0.12 nM.
“GCTGTTGGGACATGTTCGTGA (double strand) [p53 binding site]” was tested, and the Kd [7] was 0.11 nM.
